Target: recombinant human IFNγ (human) (UniProt P01579)
Test: cell-based or functional assay

Sequence of recombinant human IFNγ (human) (P01579 24-166 limits assumed): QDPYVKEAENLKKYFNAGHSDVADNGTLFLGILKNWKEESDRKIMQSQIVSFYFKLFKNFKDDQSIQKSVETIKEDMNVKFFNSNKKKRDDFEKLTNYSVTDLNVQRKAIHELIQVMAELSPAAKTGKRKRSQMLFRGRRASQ

Percentage inhibition of IFNγ-induced reporter gene expression at 0.011 nM scFv: 20% | Percentage inhibition of IFNγ-induced reporter gene expression at 0.043 nM scFv: 28% | Percentage inhibition of IFNγ-induced reporter gene expression at 0.17 nM scFv: 36% | Percentage inhibition of IFNγ-induced reporter gene expression at 0.68 nM scFv: 55% | Percentage inhibition of IFNγ-induced reporter gene expression at 2.7 nM scFv: 69%
B1: AC1.2R3P7_D3 scFv (scFv, part only; not given: scFv linker, part only)
scFv, part: EVQLLESGGGLVQPGGSLKLSCAASGFTFSSNAMSWVRQAPGKGLEWVSTLTGSGGTAYYADSVEGRFSISRDNSKNTLYLQMNSLRAEDTAVYYCAKGTELVGGGLDNWGQGTLVTVSSNFMLTQPHSLSESPGKTVTISCTGSGGSIATNYVQWYQQRPGSAPTTVIHEDNQRPSGVPDRFSGSIDGSSNSASLTISGLQPEDEADYYCQSYDSDNHHVVFGGGTKLTVLG
